Measurements reported in the supplement of paper PMC12764529.

Experiment: folding stability dG unfold (combined trypsin and chymotrypsin); higher = more stable
Method: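 Folding stability of de novo designed mini-proteins (<80 aa, no Cys; designed by TrROS, TrMRF, ProteinMPNN and the joint model) was measured by cDNA display proteolysis with trypsin and chymotrypsin. Each protease was used at 11 concentrations in a threefold dilution series plus a no-protease condition. K50 was inferred by Bayesian fitting of sequencing counts, and dG unfold was derived against a sequence-predicted unfolded-state K50 (Tsuboyama et al. method). Sequences shown include variable-length N-terminal GS-type padding (SAGGSAGG...) inside a display construct carrying a PA tag. Rows were kept only if the AF2 dimer inter-PAE was >15, to exclude likely homo-oligomers.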

Folding stability dG unfold, < -1 kcal/mol:
SAGGKTVEIPIPGPLTIETAKDLASKLAEEGHEDVPIKITMWHWKREPNGKPERHRHTHTYKLKVPKSAGGS [r16_44_TrROS]
SAGGSAGGSAGMMTLKTGSVTIVRPVPAEEAPAPPEVPGAEELTRTEVVKTEVELLPAELLSAGGSAGGSAG [r3_488_JUSTAS]
SAGGSAGGSAGIKIPSNYKYKIEKSKDDYYEIYTEDKNKKFIVPKNAPIVVFEDNTVYVKSAGGSAGGSAGG [r17_49_TrMRF]
SAGGMKKRVEIPEELKKAYPDLVVEDQEVPEDSVDVTVRLPTADLKVPQVVLSPDGNPLRSFTLTSSPSAGG [r13_129_JUSTAS]
SAGGSAGGSAGKNVPFRWRIRDPKNGNEKTIDVPMDSPEDMNRAADELQKKFPGYKVEPYSAGGSAGGSAGG [r11_233_TrROS]
SAGGSAGGSATLEQIKEAIKDSPPGEPARIPFPNGYTIRIDMRYDKEENKIDDFDIEIEPPNSAGGSAGGSA [r18_202_TrROS]
SAGGSAGGSAGGMRDIAREFAEKNGDKNKPVRIKMPGGKKHNFTPDDIPDMPFDNWTIEPSAGGSAGGSAGG [r7_863_TrROS]
SAGGMRVDYKSGKVIPEKTITIERTFSPEVVKTEEDAIELAKQEAEEAGLKDIDLKVELEGDKITVVGSAGG [r13_130_JUSTAS]
SAGGSAGGSMKVRLLIGEEEVEKAIAEGIPKEVMKPEKEKIPSSTDPRFAGNPEPVLLYYIGESAGGSAGGS [r12_78_JUSTAS]
SAGGSAGGSMPYEVTITDPNSDRTRTRKVSGDSPEISEAVPPSHTVTLTFGGTKTTLPVPALSSAGGSAGGS [r20_36_JUSTAS]
SAGPNFQIKKVEHKGGKIEIPIRLPNGRPFTARIKVEKRPDPDGNDRPRTKIEISEDALKEYIPPDLIKSAG [r5_462_TrROS]
SAGGSAGGSAGGNTRYIPMPPDDIEELIEEAKDEGIDNVIIHNPENGRWIKITGDKIKPVSAGGSAGGSAGG [r7_564_TrROS]
SAGGSAGGSAGGMKVTVETFEGPDFEIVTERSPEGKVKVFTIKPNEVKEEVIPLENPELSAGGSAGGSAGGS [r10_1169_JUSTAS]
SASSTLTFTLPRYTVNKVYDKEGKPVPVEITPVPTLEVTATTLPDGTVVVTIGDETRTYPPGVSPEELLSAG [r14_909_JUSTAS]
SAGWKIKIYPPNGQPQEIPIEDAKEIAEELAEQGNVQITPDGDIYIPFPMKDPEDGKPHQMYIQIERDKSAG [r5_243_TrROS]
SAGGMDEEELRELLAEDDATVLTEDPDGLLVAFTLPDGTARVFPVPSRERLDRLIAEVPDATVTTLPASAGG [r13_600_JUSTAS]
SAGGSAGGRVITLKEEELKKLIEEGKVDSVDVEKLPDGTVKAKPIIKEKEELSPKNKEKIFELKSAGGSAGG [r6_279_JUSTAS]
SAGGSAMVIEVEEEALSEEEAEEIKEEKLKEAKEKLPGEEPVELDIKVTVTVKEPEEKPYKKNILKSAGGSA [r15_663_JUSTAS]
SAGFEKIAEKLGVKPENLEIKDIEDKPVTVPDPKTGKPKERLVPVLYLEFYDPEVGKKVDAEIPLAEVASAG [r5_517_TrMRF]
MTIEIEVTAEDLKEGKPLTAEELAKKLAEELGLEEVEVKVEVKEDGTVKITIEVKPKPPPEVVLPEELKKKS [r1_168_TrROS_Hall]
SAGGSAKITIEPVKDQYRIEIKIPVFDPNGKKDPIEIPMYMPPDDPERMKDQILDWAREKNPDLIISAGGSA [r15_1050_TrROS]
SAGGSAGGSAMEAEATPIPLETEEFEIVVTILPGGTARVTTTPPEDGVPTESTVSVETVRALSAGGSAGGSA [r18_247_JUSTAS]
SAGGSAGGSAGGTIEELAEKLPNVDLKPVEPGPGMRRIKAQPPNGKKFTIMVDDGKIHIQSAGGSAGGSAGG [r7_26_TrROS]
SAGGSAGGSMVEEFETTEFSPPEPLVRVERLKKEIFTFPENSLSYKVTPVEERLVTPEEVAAESAGGSAGGS [r12_374_JUSTAS]
